# Measured values reported in patent US12458688B2, “Epitopes” (Scancell Limited, priority 2018, dated 2025).
# Where no end group is shown, it is not given here. [ ]: non-standard residue; d: D form. hCit = NC(=O)NCCCC[C@H](N)C(=O)O
# Molecular target: T1, HLA-DP4 (Homo sapiens, UniProt P04440+P20036)
# T1 sequence (P20036 29-260): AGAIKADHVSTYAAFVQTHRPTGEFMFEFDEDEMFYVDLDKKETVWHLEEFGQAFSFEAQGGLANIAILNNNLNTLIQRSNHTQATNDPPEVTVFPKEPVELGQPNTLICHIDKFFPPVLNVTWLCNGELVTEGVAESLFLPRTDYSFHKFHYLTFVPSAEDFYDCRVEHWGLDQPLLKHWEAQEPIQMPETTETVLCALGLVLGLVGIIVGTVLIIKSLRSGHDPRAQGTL
# T1 sequence (P04440 30-258): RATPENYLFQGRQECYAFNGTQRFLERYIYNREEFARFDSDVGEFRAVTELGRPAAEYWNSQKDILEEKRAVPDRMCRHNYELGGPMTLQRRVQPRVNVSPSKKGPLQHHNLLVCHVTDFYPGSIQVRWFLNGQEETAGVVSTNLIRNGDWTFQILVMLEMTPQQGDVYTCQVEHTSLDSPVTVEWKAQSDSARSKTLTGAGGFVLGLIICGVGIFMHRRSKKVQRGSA
# Assay: DP4 competition assay with biotinylated Hep B peptide
# Conditions: inhibition of biotinylated Hep B binding to HLA-DP4; 5 fold excess test peptide, equal amount for unlabelled Hep B
# Experimental: 2×T175 gave 2.5×10^7 B16 HHDII/DP4 (B16F1 β2M H2Ab1 dKO A35 HHDII/DP4 H7/2E9/F9 p14) cells. This was enough for 5 preps using the following protocol with Mem-PER™ Plus Membrane Protein Extraction Kit (thermo-scientific cat #89842).
# 5×10^6 cells were resuspended in the growth media by scraping the cells off the surface of the plate with a cell scraper and then centrifuged at 300 g for 5 mins. The cell pellet was washed with 3 ml of Cell Wash Solution and centrifuged at 300 g for 5 mins. The supernatant was removed and discarded. The cells were resuspended in 1.5 ml of Cell Wash Solution and transfer to a 2 ml centrifuge tube and centrifuged at 300 g for 5 mins. The supernatant was discarded. 0.75 ml of permeabilization buffer was added to the cell pellet and vortexed briefly to obtain a homogeneous cell suspension and incubated for 10 mins at 4° C. with constant mixing. The permeabilized cells were centrifuge for 15 mins at 16,000g before carefully removing the supernatant containing cytosolic proteins and transfering to a new tube. 0.5 ml of solubilization buffer was added to the pellet and resuspend prior to incubating at 4° C. for 30 minutes with constant mixing prior to centrifugation at 16,000g for 15 mins at 4° C. The supernatant containing solubilized membrane and membrane-associated proteins was transfered to a new tube. Aliquots were frozen at −80° C. for future use. 12.5 μl Halt™ Protease and Phosphatase Inhibitor Cocktail, EDTA-free (100X) thermo-scientific (Catalog number 78445) was added prior to freezing.
# High binding plates were coated with streptavidin (Sigma S4762 at 1 mg/ml) 1/500 in PBS and incubated overnight at 4° C. The plates were blocked with 1% BSA in PBS for 4 hrs at room temp and washed 3×PBS/0.5% Tweenx. 450 μl of cell prep lysate (B16F1 B16 HHDII/DP4 H7/2E9/F9) was mixed with 50 μg test peptide (see below) or 10 μg of unlabelled Hep B peptide for 30 mins. 10 μg biotinylated Hep B peptide was added & incubated for 4 hrs at 37° C.:
# Lysate/peptide mix was added to the plates at 100 μl/well and incubated for 4 hrs at room temperature. Plates were washed 3× with PBS/0.5% Tween. 100 μl per well of Leinco anti-Human HLA-DP4 clone B7/21 #H260 1 mg/ml at 1/500 dilution in 1% BSA/PBS was added and incubated for 1 hr at room temperature prior to washing 3× PBS/0.5% Tween. Goat anti-mouse lgG3-HRP at 0.5 mg/ml 1/500 100 μl per well (Invitrogen #M32607) diluted in 1% BSA/PBS) was added for 1 hr at room temperature prior to washing and adding 150 μl of TMB substrate to each well. The reaction was stopped with 50 μl of 2N H2SO4 and plates read plate at 450 nm.
# To ensure that the biotinylation of Hep B had not interfered with its binding, HLA-DP4 was incubated with equal amounts of biotinylated and unlabelled Hep B peptide. Unlabelled peptide competed equally reducing binding by 47% (FIG. 53b).
# The biotinylated HepB peptide was then incubated with a 5 fold excess of the unlabelled homocitrulline peptides. All peptides inhibited the binding of biotinylated Hep B to HLA-DP4 but to varying levels (FIG. 53c-e).
row,Substance,% inhibition [%]
1,LREYQELMNV-hcit-LALDIEI (LREYQELMNV[hCit]LALDIEI) [Cyk8 371-388 Hcit],72
2,KFASFID-Hcit-VRFLEQQN-Hcit-MLE (KFASFID[hCit]VRFLEQQN[hCit]MLE) [Cyk8 101-120 Hcit],71
3,LEQQN-hcit-MLET-hcit-WSLLQQQ-hcit-T (LEQQN[hCit]MLET[hCit]WSLLQQQ[hCit]T) [Cyk8 112-131 Hcit],64
4,hcit-DGADFA-hcit-WRCVL-hcit-IGEH ([hCit]DGADFA[hCit]WRCVL[hCit]IGEH) [Aldolase A 140-157 Hcit],76
5,HACTQ-hcit-FSH(N)EEIAMATVTA (HACTQ[hCit]FSHNEEIAMATVTA; not fully specified; printed as HACTQ-hcit-FSH(N)EEIAMATVTA) [Aldolase A 238-256 Hcit],73
6,EIN-hcit-RTEMENEFVLI-hcit-hcit-DVDE (EIN[hCit]RTEMENEFVLI[hCit][hCit]DVDE) [Cyk8 182-202 Hcit],61
7,NYID-Hcit-VRFLEQQN-Hcit-ILLAEL (NYID[hCit]VRFLEQQN[hCit]ILLAEL) [Vimentin 116-135 Hcit],44
8,IGGVILFHETLYQ-hcit-ADDGRP (IGGVILFHETLYQ[hCit]ADDGRP) [Aldolase A 74-93 Hcit],69

# Same assay, conditions: inhibition of biotinylated Hep B binding to HLA-DP4; 5 fold excess test peptide, equal amount for unlabelled Hep B; listed as Cyk8 281-399 Hcit
row,Substance,% inhibition [%]
1,hcit-LALDIEIATYR-hcit-LLEGEE ([hCit]LALDIEIATYR[hCit]LLEGEE) [Cyk8 381-399 Hcit],60
